Measurements as given in patent publication US20180142000A1 (NATIONAL RESEARCH COUNCIL OF CANADA, published 2018).

Target: FlagV1P
Experiment: fluorescence microscopy with FITC-labeled pentabody on whole bacteria

B1: C. jejuni strain 11168 flagella (other)
chain 1: GFRINTNVAALNAKANADLNSKSLDASLSRLSSGLRINSAADDASGMAIADSLRSQANTLGQAISNGNDALGILQTADKAMDEQLKILDTIKTKATQAAQDGQSLKTRTMLQADINRLMEELDNIANTTSFNGKQLLSGNFINQEFQIGASSNQTVKATIGATQSSKIGLTRFETGGRISTSGEVQFTLKNYNGIDDFQFQKVVISTSVGTGLGALADEINKNADKTGVRATFTVETRGIAAVRAGATSDTFAINGVKIGKVDYKDGDANGALVAAINSVKDTTGVEASIDANGQLLLTSREGRGIKIDGNIGGGAFINADMKENYGRLSLVKNDGKDILISGSNLSSAGFGATQFISQASVSLRESKGQIDANIADAMGFGSANKGVVLGGYSSVSAYMSSAGSGFSSGSGYSVGSGKNYSTGFANAIAISAASQLSTVYNVSAGSGFSSGSTLSQFATMKTTAFGVKDETAGVTTLKGAMAVMDIAETAITNLDQIRADIGSVQNQVTSTINNITVTQVNVKAAESQIRDVDFAAESANYSKANILAQSGSYAMAQANSVQQNVLRLLQ
chain 2: GFRINTNIGALNAHANSVVNARELDKSLSRLSSGLRINSAADDASGMAIADSLRSQAATLGQAINNGNDAIGILQTADKAMDEQLKILDTIKTKATQAAQDGQSLKTRTMLQADINRLMEELDNIANTTSFNGKQLLSGNFINQEFQIGASSNQTIKATIGATQSSKIGLTRFETGGRISSSGEVQFTLKNYNGIDDFQFQKVVISTSVGTGLGALAEEINKSADKTGVRATFTVETRGIAAVRAGTTSDTFAINGVTIGQVAYEDGDGNGALVAAINSVKDTTGVEASIDANGQLLLTSREGRGIKIDGNIGGGAFINADMKENYGRLSLVKNDGKDILISGSNLSSAGFGATQFISQASVSLRESKGRFDANIADAMGFGSANKGVVLGGYSSVSAYMSSAGSGFSSGSGYSVGSGKNYSTGFANAIAISAASQLSTVYNVSAGSGFSSGSTLSQFATMKTTAFGVKDETAGVTTLKGAMAVMDIAETATTNLDQIRADIGSVQNQLQVTINNITVTQVNVKAAESTIRDVDFAAESANFSKYNILAQSGSYAMSQANAVQQNVLKLLQ
binding result: no binding
